Experimental findings from paper PMC7486399 (2020) are described below.

Broadly, the Kd is the free concentration of one partner at which half of the binding sites on the other are occupied at equilibrium, for simple one-to-one binding. A low value points to higher affinity.

Assay [1] addresses SARS-CoV-2 spike glycoprotein receptor-binding domain (SARS-CoV-2, UniProt P0DTC2 319-541). Description: BLI. In general terms: Biolayer interferometry detects binding as a change in optical thickness at a sensor tip.
For assay [2], the target named is SARS-CoV-2 spike glycoprotein S1 subunit (SARS-CoV-2, UniProt P0DTC2 14-685). The assay can be described thus: BLI.

B1: angiotensin-converting enzyme 2 (ACE2) protein, purified (receptor)
chain: QSTIEEQAKTFLDKFNHEAEDLFYQSSLASWNYNTNITEENVQNMNNAGEKWSAFLKEQSTLAQMYPLQEIQNLTVKLQLQALQQNGSSVLSEDKSKRLNTILNTMSTIYSTGKVCNPNNPQECLLLDPGLNEIMEKSLDYNERLWAWEGWRSEVGKQLRPLYEEYVVLKNEMARANHYKDYGDYWRGNYEVNGVDGYDYNRDQLIEDVERTFEEIKPLYEHLHAYVRAKLMNAYPSYISPTGCLPAHLLGDMWGRFWTNLYSLTVPFGQKPNIDVTDAMVNQAWNAQRIFKEAEKFFVSVGLPNMTQGFWENSMLTDPGNVQKVVCHPTAWDLGKGDFRIIMCTKVTMDDFLTAHHEMGHIQYDMAYAAQPFLLRNGANEGFHEAVGEIMSLSAATPKHLKSIGLLSPDFQEDNETEINFLLKQALTIVGTLPFTYMLEKWRWMVFKGEIPKDQWMKKWWEMKREIVGVVEPVPHDETYCDPASLFHVSNDYSFIRYYTRTLYQFQFQEALCQAAKHEGPLHKCDISNSTEAGQKLLNMLKLGKSEPWTLALENVVGAKNMNVRPLLNYFEPLFTWLKDQNKNSFVGWSTDWSPYADQSIKVRISLKSALGDKAYEWNDNEMYLFRSSVAYAMRTYFLEIKHQTILFGEEDVRVADLKPRISFNFYVTAPKNVSDIIPRTEVEEAIRISRSRINDAFRLNDNSLEFLGIQTTLAPPYQSPVT
Turning to B1, the Kd is 149 nM in assay [1] and 146 nM in assay [2].
